Measured values from patent US20130123340A1.

Biological target: GFP-MG53 (mouse) (UniProt Q1XH17)
Experiment: cell-based or functional assay

Chain of UniProt Q1XH17 (Q1XH17 whole entry): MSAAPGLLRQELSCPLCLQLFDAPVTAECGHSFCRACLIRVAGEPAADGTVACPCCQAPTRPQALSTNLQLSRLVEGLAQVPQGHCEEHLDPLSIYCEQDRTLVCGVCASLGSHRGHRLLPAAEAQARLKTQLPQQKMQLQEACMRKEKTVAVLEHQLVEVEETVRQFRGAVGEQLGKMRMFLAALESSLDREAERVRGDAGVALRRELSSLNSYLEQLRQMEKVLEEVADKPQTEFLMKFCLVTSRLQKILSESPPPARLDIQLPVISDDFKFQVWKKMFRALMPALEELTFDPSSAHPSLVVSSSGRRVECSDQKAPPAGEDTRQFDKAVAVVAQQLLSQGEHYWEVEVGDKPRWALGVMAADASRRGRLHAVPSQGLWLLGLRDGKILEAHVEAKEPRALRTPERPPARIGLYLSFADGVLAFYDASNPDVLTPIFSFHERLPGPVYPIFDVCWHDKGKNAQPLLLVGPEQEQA

reduction in the appearance of filapodia-like structures in C2C12 myoblasts transfected with caveolin-3 and GFP-MG53 (about 10:1): 82%
Substance: caveolin-3 overexpressed from pcDNA-Cav-3
